Test results reported in publication PMC4606517.

What was measured:
[1] = target: hAgo2 (single-molecule) (Homo sapiens) (UniProt Q9UKV8); experiment: single-molecule FRET; conditions: 5'-phosphate on guide, C6-amino-U in guide (nt 9) and in target (opposite guide nt 17), Filter binding: 30 mM Tris pH 8.0, 0.1 M K acetate, 2 mM Mg acetate, 0.5 mM TCEP, 0.005% NP-40, 0.01 mg/ml yeast tRNA, room temp, 45 min, 0.1 nM target …
[2] = target: Ago2 wild type (Homo sapiens) (UniProt Q9UKV8); experiment: filter binding; conditions: 5'-phosphate on guide; target nt 9 (N) = inosine; Filter binding: 30 mM Tris pH 8.0, 0.1 M K acetate, 2 mM Mg acetate, 0.5 mM TCEP, 0.005% NP-40, 0.01 mg/ml yeast tRNA, room temp, 45 min, 0.1 nM target …
Ago2 wild type (Homo sapiens), sequence (Q9UKV8 whole entry): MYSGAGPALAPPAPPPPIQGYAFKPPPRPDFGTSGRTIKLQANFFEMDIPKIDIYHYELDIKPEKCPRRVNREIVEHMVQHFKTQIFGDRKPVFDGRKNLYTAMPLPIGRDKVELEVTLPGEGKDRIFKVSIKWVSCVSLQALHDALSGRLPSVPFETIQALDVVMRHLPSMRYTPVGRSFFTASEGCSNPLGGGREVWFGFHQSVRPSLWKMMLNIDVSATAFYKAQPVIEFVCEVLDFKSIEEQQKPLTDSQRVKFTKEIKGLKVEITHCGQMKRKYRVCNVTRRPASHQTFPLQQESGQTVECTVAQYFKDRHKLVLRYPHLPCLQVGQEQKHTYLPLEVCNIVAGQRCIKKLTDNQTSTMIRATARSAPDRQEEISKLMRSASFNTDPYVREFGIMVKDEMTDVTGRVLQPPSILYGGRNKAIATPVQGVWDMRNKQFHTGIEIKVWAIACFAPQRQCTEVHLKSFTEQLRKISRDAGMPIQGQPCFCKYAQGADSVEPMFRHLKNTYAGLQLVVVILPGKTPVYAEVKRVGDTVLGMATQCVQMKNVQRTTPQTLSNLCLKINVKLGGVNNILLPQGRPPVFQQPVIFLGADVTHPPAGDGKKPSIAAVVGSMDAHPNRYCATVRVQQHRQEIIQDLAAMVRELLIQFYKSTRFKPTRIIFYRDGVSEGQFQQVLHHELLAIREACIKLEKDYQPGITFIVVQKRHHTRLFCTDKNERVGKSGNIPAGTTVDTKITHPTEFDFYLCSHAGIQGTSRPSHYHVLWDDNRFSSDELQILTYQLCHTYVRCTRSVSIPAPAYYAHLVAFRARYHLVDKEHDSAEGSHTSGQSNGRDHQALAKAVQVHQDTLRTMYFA

hAgo2 (single-molecule) (Homo sapiens), sequence (Q9UKV8 whole entry): as above

UGAGGUAUUUUUUUUUUUUUUU / UUUUUUUUUUUUUUUUUUUUUUUUUUUUUUUACUACCUCAUUUUUUUUUUUUUUUUUUUUUUUUUUUUU [smFRET guide + t1A target]
binding signal ([1]; long dwell time (50.2%), short 1.61 ± 0.29 s (49.8%)): 8.69 s

UGAGGUAUUUUUUUUUUUUUUU / UUUUUUUUUUUUUUUUUUUUUUUUUUUUUUUACUACCUCAUUUUUUUUUUUUUUUUUUUUUUUUUUUUU [smFRET guide + t1DAP target]
binding signal ([1]; long dwell time (55.4%), short 1.97 ± 0.24 s (44.6%), target nt 40 = 2,6-diaminopurine (written A)): 12.9 s

UGAGGUAUUUUUUUUUUUUUUU / UUUUUUUUUUUUUUUUUUUUUUUUUUUUUUUACUACCUCUUUUUUUUUUUUUUUUUUUUUUUUUUUUUU [smFRET guide + t1U target]
binding signal ([1]; dwell time, single exponential): 1.64 s

UUCACAUUGCCCAAGUCUCUU / CAAUGUGANAA [guide + t1I target]
Kd [2]: 1.7 nM
